Results on eight molecules are retold here after patent US11278600B2, “Human alpha-galactosidase variants” (Codexis, Inc., priority 2014, dated 2022).

Holding throughout (format): biochemical
Data set [1] can be described thus: HTP-analysis of yeast culture supernatants, no challenge (MUGal hydrolysis). The method in brief:
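GLA variants expressed in yeast INVSc1, secreted into SD-Ura broth over 66-84 h at 30° C; clarified supernatants tested without challenge. Supernatant mixed with McIlvaine buffer pH 4.8 and 2 mM MUGal (citrate/KCl, pH 4.6), 37° C for 30-180 min, carbonate-quenched, fluorescence Ex 355/Em 448 nm.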

Data set [2] can be described thus: HTP-analysis of supernatants pretreated with acid (MUGal hydrolysis). The note with it: for Relative Activity of GLA Variants After Challenge at pH 3.3: activity of the variant/activity of Rd3BB (SEQ ID NO: 13), yeast supernatant; for Relative Activity of GLA Variants After Challenge at pH 3.5: activity of the variant/activity of Rd7BB (SEQ ID NO: 44). The gist of the method: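 Yeast INVSc1 supernatant, GLA variants; acid challenge: McIlvaine pH 3.3-4.3, 37° C., 1-3 h. Assay: MUGal in McIlvaine pH 4.8 plus citrate pH 4.3, 37° C., 30-180 min, Na2CO3 stop, Ex 355/Em 448 nm.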

Data set [3] in a line: HTP-analysis of supernatants pretreated with base (MUGal hydrolysis). The note with it: for Relative Activity of GLA Variants After Challenge at pH 9.7: activity of the variant/activity of Rd3BB (SEQ ID NO: 13), yeast supernatant; for Relative Activity of GLA Variants After Challenge at pH 7.5: activity of the variant/activity of Rd7BB (SEQ ID NO: 44). The method in brief: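 Supernatants from INVSc1 yeast expressing GLA variants (SD-Ura, 66-84 h, 30° C) were mixed with McIlvaine buffer pH 7.0-8.2 or 200 mM sodium bicarbonate pH 9.1-9.7 and held 1-18 h at 37° C. Residual activity was then measured on MUGal at pH 4.8/4.3, 37° C, 30-180 min, by fluorescence (Ex 355/Em 448 nm).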

[4] abbreviates: activity of the variant/activity of Rd3BB (SEQ ID NO: 13), yeast supernatant.
Where [5] appears, read: activity of the variant/activity of Rd7BB (SEQ ID NO: 44).

B1: 628 (protein)
chain: LDNGLARTPTMGWLHWERFMCNLDCQEEPDSCISEKLFMEMAERMVNEGWKDAGYEYLCIDDCWMAPQRDSEGRLQADPQRFPHGIRQLANHVHSKGLKLGIYADVGNKTCAGFPGSFGYYDIDAQTFADWGVDLLKFDGCYCDSLENLADGYKHMSLALNRTGRPIVYSCEWPLYMWPFQKPNYTEIRQYCNHWRNFADIDDSWASIKSILDWTSRNQERIVDVAGPGGWNDPDMLVIGNFGLSWDQQVTQMALWAIMAAPLFMSNDLRAISPQAKALLQDKDVIAINQDPLGKQGYQLRKGDNFEVWERPLSGDAWAVAIINRQEIGGPRSYTIPVASLGKGVACNPACFITQLLPVKRQLGFYNWTSRLKSHINPTGTVLLQLENTHQMSLKDLL
modifications: Synthetic Polypeptide sequence of Variant No. 628 of mature Human GLA
As for B1, the “Relative Activity of GLA Variants After No Challenge (NC)” value in data set [1] (setting [4]) was “+ (+ = 1.5 to 5 relative activity over Rd3BB (SEQ ID NO: 13))”. In addition, the “Relative Activity of GLA Variants After Challenge at pH 3.3” value (shortened to “Relative Activity … at pH 3.3”) in data set [2] is given as “+ (+ = 1.5 to 5 relative activity over Rd3BB (SEQ ID NO: 13))”. For the same molecule, the “Relative Activity of GLA Variants After Challenge at pH 9.7” value (from here on “Relative Activity … at pH 9.7”) in data set [3] is “++ (++ = >5 to 10 relative activity over Rd3BB (SEQ ID NO: 13))”.

B2: 631 (protein)
chain: LDNGLARTPTMGWLHWERFMCNLDCQEEPDSCISEKLFMEMAERMVTEGWKDAGYEYLCIDDCWMAPQRDSEGRLQADPQRFPHGIRQLANHVHSKGLKLGIYADVGNKTCAGFPGSFGYYDIDAQTFADWGVDLLKFDGCYCDSLENLADGYKHMSLALNRTGRPIVYSCEWPLYMWPFQKPNYTEIRQYCNHWRNFADIDDSWASIKSILDWTSRNQERIVDVAGPGGWNDPDMLVIGNFGLSWDQQVTQMALWAIMAAPLFMSNDLRAISPQAKALLQDKDVIAINQDPLGKQGYQLRKGDNFEVWERPLSGDAWAVAIINRQEIGGPRSYTIPVASLGKGVACNPACFITQLLPVKRQLGFYNWTSRLKSHINPTGTVLLQLENTQQMSLKDLL
modifications: Synthetic Polypeptide sequence of Variant No. 631 of mature Human GLA
B2: the “Relative Activity of GLA Variants After No Challenge (NC)” value in data set [1] (setting [4]) is listed as “+ (+ = 1.5 to 5 relative activity over Rd3BB (SEQ ID NO: 13))”. The “Relative Activity … at pH 3.3” value in data set [2] is given as “+ (+ = 1.5 to 5 relative activity over Rd3BB (SEQ ID NO: 13))”. For the same molecule, the “Relative Activity … at pH 9.7” value in data set [3] is on record as “++ (++ = >5 to 10 relative activity over Rd3BB (SEQ ID NO: 13))”.

B3: 609 (protein)
chain: LDNGLARTPTMGWLHWERFMCNLDCQEEPDSCISEKLFMEMAERMVSEGWKDAGYEYLCIDDCWMAPQRDSEGRLQADPQRFPHGIRQLANYVHSKGLKLGIYADVGNKTCAGFPGSFGYYDIDAQTFADWGVDLLKFDGCYCDSLENLADGYKHMSLALNRTGRPIVYSCEWPLYMWPFQKPNYTEIRQYCNHWRNFADIDDSWASIKSILDWTSRNQERIVDVAGPGGWNDPDMLVIGNFGLSWDQQVTQMALWAIMAAPLFMSNDLRHISPQAKALLQDKDVIAINQDPLGKQGYQLRKGDNFEVWERPLSGDAWAVAIINRQEIGGPRSYTIPVASLGKGVACNPACFITQLLPVKRQLGFYNWTSRLKSHINPTGTVLLQLENTMQMSLKDLL
modifications: Synthetic Polypeptide sequence of Variant No. 609 of mature Human GLA
Take B3: the “Relative Activity of GLA Variants After No Challenge (NC)” value in data set [1] (setting [4]) is “+ (+ = 1.5 to 5 relative activity over Rd3BB (SEQ ID NO: 13))”. Also, the “Relative Activity … at pH 3.3” value in data set [2] is on record as “++ (++ = >5 to 10 relative activity over Rd3BB (SEQ ID NO: 13))”. In data set [3], the “Relative Activity … at pH 9.7” value is “++ (++ = >5 to 10 relative activity over Rd3BB (SEQ ID NO: 13))”.

B4: 630 (protein)
chain: LDNGLARTPTMGWLHWERFMCNLDCQEEPDSCISEKLFMEMAERMVTEGWKDAGYEYLCIDDCWMAPQRDSEGRLQADPQRFPHGIRQLANHVHSKGLKLGIYADVGNKTCAGFPGSFGYYDIDAQTFADWGVDLLKFDGCYCDSLENLADGYKHMSLALNRTGRPIVYSCEWPLYMWPFQKPNYTEIRQYCNHWRNFADIDDSWASIKSILDWTSRNQERIVDVAGPGGWNDPDMLVIGNFGLSWDQQVTQMALWAIWAAPLFMSNDLRAISPQAKALLQDKDVIAINQDPLGKQGYQLRKGDNFEVWERPLSGDAWAVAIINRQEIGGPRSYTIPVASLGKGVACNPACFITQLLPVKRQLGFYNWTSRLKSHINPTGTVLLQLENTHQMSLKDLL
modifications: Synthetic Polypeptide sequence of Variant No. 630 of mature Human GLA
Take B4: the “Relative Activity of GLA Variants After No Challenge (NC)” value in data set [1] (setting [4]) is reported as “+ (+ = 1.5 to 5 relative activity over Rd3BB (SEQ ID NO: 13))”. Besides, the “Relative Activity … at pH 3.3” value in data set [2] was “− (− = <1.5 relative activity to Rd3BB (SEQ ID NO: 13))”. The “Relative Activity … at pH 9.7” value in data set [3] is on record as “++ (++ = >5 to 10 relative activity over Rd3BB (SEQ ID NO: 13))”.

B5: 632 (protein)
chain: LDNGLARTPTMGWLHWERFMCNLDCQEEPDSCISEKLFMEMAERMVNEGWKDAGYEYLCIDDCWMAPQRDSEGRLQADPQRFPHGIRQLANHVHSKGLKLGIYADVGNKTCAGFPGSFGYYDIDAQTFADWGVDLLKFDGCYCDSLENLADGYKHMSLALNRTGRPIVYSCEWPLYMWPFQKPNYTEIRQYCNHWRNFADIDDSWASIKSILDWTSRNQERIVDVAGPGGWNDPDMLVIGNFGLSWDQQVTQMALWAIMAAPLFMSNDLRAISPQAKALLQDKDVIAINQDPLGKQGYQLRKGDNFEVWERPLSGDAWAVAIINRQEIGGPRSYTIPVASLGKGVACNPACFITQLLPVKRQLGFYNWTSRLKSHINPTGTVLLQLENTMQTSLKDLL
modifications: Synthetic Polypeptide sequence of Variant No. 632 of mature Human GLA
Consider B5, for which, in data set [1] (setting [4]), the “Relative Activity of GLA Variants After No Challenge (NC)” value is given as “+ (+ = 1.5 to 5 relative activity over Rd3BB (SEQ ID NO: 13))”. Besides, the “Relative Activity … at pH 3.3” value in data set [2] is “++ (++ = >5 to 10 relative activity over Rd3BB (SEQ ID NO: 13))”. For the same molecule, the “Relative Activity … at pH 9.7” value in data set [3] is “++ (++ = >5 to 10 relative activity over Rd3BB (SEQ ID NO: 13))”.

B6: 629 (protein)
chain: LDNGLARTPTMGWLHWERFMCNLDCQEEPDSCISEKLFMEMAERMVTEGWKDAGYEYLCIDDCWMAPQRDSEGRLQADPQRFPHGIRQLANYVHSKGLKLGIYADVGNKTCAGFPGSFGYYDIDAQTFADWGVDLLKFDGCYCDSLENLADGYKHMSLALNRTGRPIVYSCEWPLYMWPFQKPNYTEIRQYCNHWRNFADIDDSWASIKSILDWTSRNQERIVDVAGPGGWNDPDMLVIGNFGLSWDQQVTQMALWAIMAAPLFMSNDLRAISPQAKALLQDKDVIAINQDPLGKQGYQLRKGDNFEVWERPLSGDAWAVAIINRQEIGGPRSYTIPVASLGKGVACNPACFITQLLPVKRQLGFYNWTSRLKSHINPTGTVLLQLENTQQMSLKDLL
modifications: Synthetic Polypeptide sequence of Variant No. 629 of mature Human GLA
B6: in data set [1] (setting [4]), the “Relative Activity of GLA Variants After No Challenge (NC)” value is on record as “+ (+ = 1.5 to 5 relative activity over Rd3BB (SEQ ID NO: 13))”. For the same molecule, the “Relative Activity … at pH 3.3” value in data set [2] is on record as “++ (++ = >5 to 10 relative activity over Rd3BB (SEQ ID NO: 13))”. Besides, the “Relative Activity … at pH 9.7” value in data set [3] is “++ (++ = >5 to 10 relative activity over Rd3BB (SEQ ID NO: 13))”.

B7: 661 (protein)
chain: LDNGLARTPTMGWLHWERFMCNLDCQEEPDSCISEKLFMEMAERMVTEGWKDAGYEYLCIDDCWMAPQRDSEGRLQADPQRFPHGIRQLANHVHSKGLKLGIYADVGNKTCAGFPGSFGYYDIDAQTFADWGVDLLKFDGCYCDSLENLADGYKHMSLALNRTGRPIVYSCEWPLYMWPFQKPNYTEIRQYCNHCRNFADIDDSWASIKSILDWTSRNQERIVDVAGPGGWNDPDMLVIGNFGLSWDQQVTQMALWAIMAAPLFMSNDLRAISPQAKALLQDKDVIAINQDPLGKQGYQLRKGDNFEVWERPLSGDAWAVAIINRQEIGGPRSYTIPVASLGKGVACNPACFITQLLPVKRQLGFYNWTSRLKSHINPTGTVLLQLENTMQTSLKDLL
modifications: Synthetic Polypeptide sequence of Variant No. 661 of mature Human GLA
As to B7, the “Relative Activity of GLA Variants After No Challenge (NC)” value in data set [1] (setting [5]) is recorded as “− (<0.5 relative activity to Rd7BB (SEQ ID NO: 44))”. Also, in data set [2], the “Relative Activity of GLA Variants After Challenge at pH 3.5” value is recorded as “− (<0.5 relative activity to Rd7BB (SEQ ID NO: 44))”. Further, the “Relative Activity of GLA Variants After Challenge at pH 7.5” value in data set [3] was “− (<0.5 relative activity to Rd7BB (SEQ ID NO: 44))”.

B8: 660 (protein)
chain: LDNGLARTPTMGWLHWERFMCNLDCQEEPDSCISEKLFEEMAERMVTEGWKDAGYEYLCIDDCWMAPQRDSEGRLQADPQRFPHGIRQLANHVHSKGLKLGIYADVGNKTCAGFPGSFGYYDIDAQTFADWGVDLLKFDGCYCDSLENLADGYKHMSLALNRTGRPIVYSCEWPLYMWPFQKPNYTEIRQYCNHWRNFADIDDSWASIKSILDWTSRNQERIVDVAGPGGWNDPDMLVIGNFGLSWDQQVTQMALWAIMAGPLFMSNDLRAISPQAKALLQDKDVIAINQDPLGKQGYQLRKGDLFEVWERPLSGDAWAVAIINRQEIGGPRSYTIPVASLGKGVACNPACFITQLLPVKRQLGFYNWTSRLKSHINPTGTVLLQLENTMQTSLKDLL
modifications: Synthetic Polypeptide sequence of Variant No. 660 of mature Human GLA
Consider B8, for which the “Relative Activity of GLA Variants After No Challenge (NC)” value in data set [1] (setting [5]) is given as “+ (>0.5 to 1.5 relative activity over Rd7BB (SEQ ID NO: 44))”. The “Relative Activity of GLA Variants After Challenge at pH 3.5” value in data set [2] was “+ (>0.5 to 1.5 relative activity over Rd7BB (SEQ ID NO: 44))”. Besides, the “Relative Activity of GLA Variants After Challenge at pH 7.5” value in data set [3] is on record as “− (<0.5 relative activity to Rd7BB (SEQ ID NO: 44))”.
